# Results as given in IntAct's records for PubMed 25910212.
# B1: Aspartoacylase (Homo sapiens), P45381 (parent)
# chain: MTSCHIAEEHIQKVAIFGGTHGNELTGVFLVKHWLENGAEIQRTGLEVKPFITNPRAVKKCTRYIDCDLNRIFDLENLGKKMSEDLPYEVRRAQEINHLFGPKDSEDSYDIIFDLHNTTSNMGCTLILEDSRNNFLIQMFHYIKTSLAPLPCYVYLIEHPSLKYATTRSIAKYPVGIEVGPQPQGVLRADILDQMRKMIKHALDFIHHFNEGKEFPPCAIEVYKIIEKVDYPRDENGEIAAIIHPNLQDQDWKPLHPGDPMFLTLDGKTIPLGGDCTVYPVFVNEAAYYEKKEAFAKTTKLTLNAKSIRCCLH
# partner: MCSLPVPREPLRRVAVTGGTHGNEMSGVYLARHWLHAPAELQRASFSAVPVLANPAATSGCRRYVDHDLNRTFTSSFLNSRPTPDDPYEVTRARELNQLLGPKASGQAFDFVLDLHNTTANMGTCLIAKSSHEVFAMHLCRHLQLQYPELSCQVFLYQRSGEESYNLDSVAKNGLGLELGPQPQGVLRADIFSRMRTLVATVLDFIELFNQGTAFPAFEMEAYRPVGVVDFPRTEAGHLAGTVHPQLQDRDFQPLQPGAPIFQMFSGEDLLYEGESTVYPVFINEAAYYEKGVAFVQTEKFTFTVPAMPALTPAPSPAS
# B2: Ribonucleoside-diphosphate reductase subunit M2 B (Homo sapiens), Q7LG56 (parent)
# chain: MGDPERPEAAGLDQDERSSSDTNESEIKSNEEPLLRKSSRRFVIFPIQYPDIWKMYKQAQASFWTAEEVDLSKDLPHWNKLKADEKYFISHILAFFAASDGIVNENLVERFSQEVQVPEARCFYGFQILIENVHSEMYSLLIDTYIRDPKKREFLFNAIETMPYVKKKADWALRWIADRKSTFGERVVAFAAVEGVFFSGSFAAIFWLKKRGLMPGLTFSNELISRDEGLHCDFACLMFQYLVNKPSEERVREIIVDAVKIEQEFLTEALPVGLIGMNCILMKQYIEFVADRLLVELGFSKVFQAENPFDFMENISLEGKTNFFEKRVSEYQRFAVMAETTDNVFTLDADF
# partner: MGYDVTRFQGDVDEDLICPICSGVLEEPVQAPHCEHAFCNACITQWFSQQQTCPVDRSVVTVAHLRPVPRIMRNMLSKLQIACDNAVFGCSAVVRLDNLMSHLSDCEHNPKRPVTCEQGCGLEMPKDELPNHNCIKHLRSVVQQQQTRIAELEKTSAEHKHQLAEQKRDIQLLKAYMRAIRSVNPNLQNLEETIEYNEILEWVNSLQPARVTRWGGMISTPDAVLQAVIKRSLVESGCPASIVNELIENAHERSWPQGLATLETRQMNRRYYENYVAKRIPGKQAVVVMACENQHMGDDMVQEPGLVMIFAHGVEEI
# B3: U4/U6 small nuclear ribonucleoprotein Prp31 (Homo sapiens), Q8WWY3 (parent)
# chain: MSLADELLADLEEAAEEEEGGSYGEEEEEPAIEDVQEETQLDLSGDSVKTIAKLWDSKMFAEIMMKIEEYISKQAKASEVMGPVEAAPEYRVIVDANNLTVEIENELNIIHKFIRDKYSKRFPELESLVPNALDYIRTVKELGNSLDKCKNNENLQQILTNATIMVVSVTASTTQGQQLSEEELERLEEACDMALELNASKHRIYEYVESRMSFIAPNLSIIIGASTAAKIMGVAGGLTNLSKMPACNIMLLGAQRKTLSGFSSTSVLPHTGYIYHSDIVQSLPPDLRRKAARLVAAKCTLAARVDSFHESTEGKVGYELKDEIERKFDKWQEPPPVKQVKPLPAPLDGQRKKRGGRRYRKMKERLGLTEIRKQANRMSFGEIEEDAYQEDLGFSLGHLGKSGSGRVRQTQVNEATKARISKTLQRTLQKQSVVYGGKSTIRDRSSGTASSVAFTPLQGLEIVNPQAAEKKVAEANQKYFSSMAEFLKVKGEKSGLMST
# Variants of: B1
# Settings: with acy3_human ACY3, Q96HD9
row,effect of a mutation on the interaction,Variant
1,disrupting interaction strength,M195R

# Variants of: B2
# Settings: with rnf41_human RNF41, Q9H4P4
row,effect of a mutation on the interaction,Variant
1,with no effect,C236F
2,disrupting interaction strength,W64R

# Variants of: B3
# Settings: with pnma1_human PNMA1, Q8ND90
row,effect of a mutation on the interaction,Variant
1,with no effect,L107V

# Variants of: B3
# Settings: with lzts2_human LZTS2, Q9BRK4
# Chain of lzts2_human LZTS2, Q9BRK4 (Q9BRK4 whole entry): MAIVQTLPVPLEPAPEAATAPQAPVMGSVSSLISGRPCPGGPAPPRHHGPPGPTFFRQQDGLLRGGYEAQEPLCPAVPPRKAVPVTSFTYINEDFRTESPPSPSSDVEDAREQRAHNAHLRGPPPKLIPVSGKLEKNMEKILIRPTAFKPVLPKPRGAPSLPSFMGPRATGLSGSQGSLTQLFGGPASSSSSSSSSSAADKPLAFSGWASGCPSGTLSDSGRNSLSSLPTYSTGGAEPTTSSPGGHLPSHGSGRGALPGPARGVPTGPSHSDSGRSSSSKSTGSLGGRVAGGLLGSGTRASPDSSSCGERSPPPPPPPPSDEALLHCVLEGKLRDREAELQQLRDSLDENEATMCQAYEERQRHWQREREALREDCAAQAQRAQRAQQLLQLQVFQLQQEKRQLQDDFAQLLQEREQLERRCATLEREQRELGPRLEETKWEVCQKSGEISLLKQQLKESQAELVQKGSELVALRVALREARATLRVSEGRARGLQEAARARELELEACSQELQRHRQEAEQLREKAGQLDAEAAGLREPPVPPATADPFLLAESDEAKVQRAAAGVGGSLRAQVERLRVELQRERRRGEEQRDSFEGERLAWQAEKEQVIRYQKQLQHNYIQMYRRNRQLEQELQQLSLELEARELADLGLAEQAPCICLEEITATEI
row,effect of a mutation on the interaction,Variant
1,with no effect,L107V

# Variants of: B3
# Settings: with pak5_human PAK5, Q9P286
# Chain of pak5_human PAK5, Q9P286 (Q9P286 whole entry, looked up): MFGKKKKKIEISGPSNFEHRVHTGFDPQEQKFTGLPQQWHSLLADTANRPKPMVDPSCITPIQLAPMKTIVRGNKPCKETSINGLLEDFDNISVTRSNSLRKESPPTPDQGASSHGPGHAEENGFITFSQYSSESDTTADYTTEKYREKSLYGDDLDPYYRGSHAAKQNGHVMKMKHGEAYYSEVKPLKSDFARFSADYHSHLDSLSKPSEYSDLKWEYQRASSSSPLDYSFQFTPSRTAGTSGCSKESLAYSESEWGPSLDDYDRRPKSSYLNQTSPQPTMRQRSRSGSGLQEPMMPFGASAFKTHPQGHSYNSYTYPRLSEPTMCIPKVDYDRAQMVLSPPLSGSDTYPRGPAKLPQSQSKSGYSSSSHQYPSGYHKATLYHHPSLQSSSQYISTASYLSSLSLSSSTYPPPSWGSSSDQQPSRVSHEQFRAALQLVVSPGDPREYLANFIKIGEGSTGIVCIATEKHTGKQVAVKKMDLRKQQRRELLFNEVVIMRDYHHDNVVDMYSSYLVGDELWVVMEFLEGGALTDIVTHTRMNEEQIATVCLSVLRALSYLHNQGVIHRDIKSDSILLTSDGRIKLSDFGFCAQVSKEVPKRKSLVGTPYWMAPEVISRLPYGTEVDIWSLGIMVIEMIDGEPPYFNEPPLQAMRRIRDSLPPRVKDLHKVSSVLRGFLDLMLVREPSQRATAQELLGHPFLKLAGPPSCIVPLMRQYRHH
row,effect of a mutation on the interaction,Variant
1,with no effect,L107V

# Variants of: B3
# Settings: with myome_human PDE4DIP
row,effect of a mutation on the interaction,Variant
1,with no effect,L107V

# Variants of: B3
# Settings: with tsg10_human TSGA10, Q9BZW7
# Chain of tsg10_human TSGA10, Q9BZW7 (Q9BZW7 whole entry): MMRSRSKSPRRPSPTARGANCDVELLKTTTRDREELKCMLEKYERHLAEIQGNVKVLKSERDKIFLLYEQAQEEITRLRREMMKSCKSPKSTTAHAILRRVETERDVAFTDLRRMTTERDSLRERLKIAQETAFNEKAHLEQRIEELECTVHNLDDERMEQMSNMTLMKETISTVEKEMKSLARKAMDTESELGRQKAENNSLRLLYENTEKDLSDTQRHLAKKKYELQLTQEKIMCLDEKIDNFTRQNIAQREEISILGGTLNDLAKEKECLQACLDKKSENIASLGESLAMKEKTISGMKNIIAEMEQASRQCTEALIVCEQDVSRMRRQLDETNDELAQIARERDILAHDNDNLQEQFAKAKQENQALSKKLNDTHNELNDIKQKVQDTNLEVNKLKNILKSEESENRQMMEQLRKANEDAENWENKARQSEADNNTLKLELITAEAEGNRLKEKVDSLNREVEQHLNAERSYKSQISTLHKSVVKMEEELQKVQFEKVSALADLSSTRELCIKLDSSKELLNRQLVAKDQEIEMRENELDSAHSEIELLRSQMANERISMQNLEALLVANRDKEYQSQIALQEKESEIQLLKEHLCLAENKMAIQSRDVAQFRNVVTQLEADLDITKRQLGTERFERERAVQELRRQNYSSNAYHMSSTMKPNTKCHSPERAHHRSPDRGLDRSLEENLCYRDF
row,effect of a mutation on the interaction,Variant
1,with no effect,L107V

# Variants of: B3
# Settings: with ppip1_human PSTPIP1, O43586
row,effect of a mutation on the interaction,Variant
1,with no effect,L107V

# Variants of: B3
# Settings: with fbln4_human EFEMP2, O95967
row,effect of a mutation on the interaction,Variant
1,with no effect,L107V

# Variants of: B3
# Settings: with ldoc1_human LDOC1, O95751
# Chain of ldoc1_human LDOC1, O95751 (O95751 whole entry): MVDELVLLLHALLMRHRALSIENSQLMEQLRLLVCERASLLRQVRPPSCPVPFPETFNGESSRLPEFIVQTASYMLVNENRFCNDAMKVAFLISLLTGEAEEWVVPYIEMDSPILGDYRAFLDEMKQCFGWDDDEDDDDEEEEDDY
row,effect of a mutation on the interaction,Variant
1,with no effect,L107V

# Variants of: B3
# Settings: with znf24_human ZNF24, P17028
# Chain of znf24_human ZNF24, P17028 (P17028 whole entry): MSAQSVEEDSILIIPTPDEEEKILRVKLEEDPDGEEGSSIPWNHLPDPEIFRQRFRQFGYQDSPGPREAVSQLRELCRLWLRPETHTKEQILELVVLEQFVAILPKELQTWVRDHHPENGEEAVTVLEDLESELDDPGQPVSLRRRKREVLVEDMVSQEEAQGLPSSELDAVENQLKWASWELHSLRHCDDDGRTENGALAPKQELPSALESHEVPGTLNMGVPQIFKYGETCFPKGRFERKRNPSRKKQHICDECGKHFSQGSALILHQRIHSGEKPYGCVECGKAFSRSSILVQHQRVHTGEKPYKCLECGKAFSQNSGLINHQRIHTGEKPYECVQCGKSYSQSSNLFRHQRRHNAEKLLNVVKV
row,effect of a mutation on the interaction,Variant
1,with no effect,L107V

# Variants of: B3
# Settings: with KRT15, P19012
# Chain of KRT15, P19012 (P19012 whole entry): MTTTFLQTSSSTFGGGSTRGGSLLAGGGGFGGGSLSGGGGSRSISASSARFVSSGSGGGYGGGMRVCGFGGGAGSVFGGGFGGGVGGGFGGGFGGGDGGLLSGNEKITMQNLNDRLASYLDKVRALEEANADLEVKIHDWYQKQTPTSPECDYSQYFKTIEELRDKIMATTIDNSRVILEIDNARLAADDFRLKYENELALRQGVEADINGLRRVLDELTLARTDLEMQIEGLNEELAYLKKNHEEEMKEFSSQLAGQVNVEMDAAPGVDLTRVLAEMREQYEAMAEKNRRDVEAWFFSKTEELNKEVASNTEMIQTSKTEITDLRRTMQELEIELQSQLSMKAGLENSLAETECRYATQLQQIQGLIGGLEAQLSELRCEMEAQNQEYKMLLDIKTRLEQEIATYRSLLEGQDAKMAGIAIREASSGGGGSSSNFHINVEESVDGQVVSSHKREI
row,effect of a mutation on the interaction,Variant
1,with no effect,L107V

# Variants of: B3
# Settings: with rbmx_human RBMX
row,effect of a mutation on the interaction,Variant
1,with no effect,L107V

# Variants of: B3
# Settings: with HNRNPK
row,effect of a mutation on the interaction,Variant
1,with no effect,L107V

# Variants of: B3
# Settings: with mdfi_human MDFI
row,effect of a mutation on the interaction,Variant
1,with no effect,L107V

# Variants of: B3
# Settings: with ZNF250, P15622-3
row,effect of a mutation on the interaction,Variant
1,with no effect,L107V

# Variants of: B3
# Settings: with zn587_human ZNF587, Q96SQ5
row,effect of a mutation on the interaction,Variant
1,with no effect,L107V

# Variants of: B3
# Settings: with KRT40, Q6A162
row,effect of a mutation on the interaction,Variant
1,with no effect,L107V

# Variants of: B3
# Settings: with nt2na_human NOTCH2NLA
row,effect of a mutation on the interaction,Variant
1,with no effect,L107V

# Variants of: B3
# Settings: with tfp11_human TFIP11, Q9UBB9
row,effect of a mutation on the interaction,Variant
1,with no effect,L107V

# Variants of: B3
# Settings: with goga2_human GOLGA2, Q08379
# Chain of goga2_human GOLGA2, Q08379 (Q08379 whole entry): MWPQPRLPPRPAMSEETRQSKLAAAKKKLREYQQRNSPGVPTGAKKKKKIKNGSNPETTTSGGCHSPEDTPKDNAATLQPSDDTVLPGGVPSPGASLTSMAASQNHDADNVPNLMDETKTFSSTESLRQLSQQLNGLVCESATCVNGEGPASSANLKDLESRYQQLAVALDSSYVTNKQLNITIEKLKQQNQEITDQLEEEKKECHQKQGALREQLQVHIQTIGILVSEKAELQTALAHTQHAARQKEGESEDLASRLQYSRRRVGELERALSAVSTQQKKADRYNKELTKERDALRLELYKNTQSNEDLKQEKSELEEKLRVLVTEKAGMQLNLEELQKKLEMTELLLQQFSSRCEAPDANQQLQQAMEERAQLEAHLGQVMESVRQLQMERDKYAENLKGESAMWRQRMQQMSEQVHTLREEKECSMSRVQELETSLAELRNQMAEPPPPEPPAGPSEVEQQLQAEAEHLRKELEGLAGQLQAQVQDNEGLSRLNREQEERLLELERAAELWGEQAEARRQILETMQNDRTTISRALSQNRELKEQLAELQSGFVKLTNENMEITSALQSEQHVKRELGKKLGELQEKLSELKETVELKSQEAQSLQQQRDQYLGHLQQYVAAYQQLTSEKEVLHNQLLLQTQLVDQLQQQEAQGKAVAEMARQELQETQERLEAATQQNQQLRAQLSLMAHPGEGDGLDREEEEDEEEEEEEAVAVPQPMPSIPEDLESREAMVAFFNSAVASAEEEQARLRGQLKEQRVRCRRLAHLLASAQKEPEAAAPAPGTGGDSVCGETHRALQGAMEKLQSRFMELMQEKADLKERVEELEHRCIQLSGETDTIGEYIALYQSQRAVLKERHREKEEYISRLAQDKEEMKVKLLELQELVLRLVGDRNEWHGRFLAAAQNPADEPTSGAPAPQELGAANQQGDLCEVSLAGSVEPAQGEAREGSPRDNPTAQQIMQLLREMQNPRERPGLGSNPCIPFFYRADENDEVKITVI
row,effect of a mutation on the interaction,Variant
1,with no effect,L107V

# Variants of: B3
# Settings: with jkip2_human JAKMIP2, Q96AA8
row,effect of a mutation on the interaction,Variant
1,with no effect,L107V

# Variants of: B3
# Settings: with ccd33_human CCDC33, Q8N5R6
# Chain of ccd33_human CCDC33, Q8N5R6 (Q8N5R6 whole entry): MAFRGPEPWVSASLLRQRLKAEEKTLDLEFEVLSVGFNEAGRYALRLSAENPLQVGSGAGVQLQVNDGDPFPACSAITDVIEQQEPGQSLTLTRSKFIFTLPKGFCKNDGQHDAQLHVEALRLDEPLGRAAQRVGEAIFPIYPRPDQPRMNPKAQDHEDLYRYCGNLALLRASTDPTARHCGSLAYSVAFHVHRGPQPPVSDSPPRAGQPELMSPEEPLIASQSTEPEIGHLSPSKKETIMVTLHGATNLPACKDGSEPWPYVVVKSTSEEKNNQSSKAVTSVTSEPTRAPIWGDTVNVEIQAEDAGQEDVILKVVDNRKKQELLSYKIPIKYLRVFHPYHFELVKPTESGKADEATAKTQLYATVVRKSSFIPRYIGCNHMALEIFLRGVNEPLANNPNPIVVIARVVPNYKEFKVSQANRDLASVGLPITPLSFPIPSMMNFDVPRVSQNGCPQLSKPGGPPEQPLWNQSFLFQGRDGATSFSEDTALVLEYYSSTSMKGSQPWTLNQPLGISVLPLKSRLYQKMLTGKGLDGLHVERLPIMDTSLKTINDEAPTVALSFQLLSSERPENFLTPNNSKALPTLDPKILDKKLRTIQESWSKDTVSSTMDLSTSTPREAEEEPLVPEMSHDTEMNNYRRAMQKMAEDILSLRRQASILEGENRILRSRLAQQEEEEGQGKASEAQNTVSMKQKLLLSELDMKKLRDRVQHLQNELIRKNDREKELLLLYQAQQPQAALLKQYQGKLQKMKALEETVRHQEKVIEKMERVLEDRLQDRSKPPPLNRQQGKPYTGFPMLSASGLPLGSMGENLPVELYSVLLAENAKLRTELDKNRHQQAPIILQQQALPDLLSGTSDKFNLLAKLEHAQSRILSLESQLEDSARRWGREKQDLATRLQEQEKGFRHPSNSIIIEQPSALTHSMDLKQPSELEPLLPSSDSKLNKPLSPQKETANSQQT
row,effect of a mutation on the interaction,Variant
1,with no effect,L107V

# Variants of: B3
# Settings: with zn417_human ZNF417, Q8TAU3
row,effect of a mutation on the interaction,Variant
1,with no effect,L107V

# Variants of: B3
# Settings: with MTUS2, Q5JR59-3
row,effect of a mutation on the interaction,Variant
1,with no effect,L107V
